Data: paper doi:10.1101/2023.11.01.565197 (bioRxiv, 2023)

Molecular target: the molecule itself
Test: cryo-EM structure

B1: rabbit Slo1 (KCNMA1) (natural protein)
chain: not shown
stoichiometry N: 4
